The assay has as its target ERBB2 (Homo sapiens (Human), UniProt P04626). The assay can be described thus: SPR (ErbB-Fc on chip, avid).

B1: S100A4 (protein)
chain 1: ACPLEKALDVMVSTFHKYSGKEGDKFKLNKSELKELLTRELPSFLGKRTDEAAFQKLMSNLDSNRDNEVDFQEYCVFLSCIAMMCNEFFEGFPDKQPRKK
chain 2: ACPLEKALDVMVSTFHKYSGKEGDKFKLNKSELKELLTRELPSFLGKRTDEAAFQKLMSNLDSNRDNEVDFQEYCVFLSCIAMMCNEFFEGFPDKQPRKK
By Kd is commonly meant the equilibrium constant for the complex coming apart. Lower therefore signals a tighter complex. Take B1: the Kd was > 1250 nM.
